What was measured:
[1] = test system: SB100X Q124C transposase Q124C (synthetic construct); test: cell_activity; details: HepG2 colony-forming transposition; hyperactive at 500 and 2500 ng plasmid
[2] = test system: SB100X Sleeping Beauty transposase (synthetic construct); test: cell_activity; details: HepG2 colony-forming transposition; integrates at TA

SB transposon pT2/Puro (puro-tagged, terminal inverted repeats)
transposition activity (colony formation, fold vs SB100X) (fold vs SB100X) [1]: 2
transposition activity (colony formation, fold vs SB100X) (fold (reference)) [2]: 1

Source: US20260103689
